Positions count from the first letter of the chain named.

T1: DinG (Bacillus subtilis, UniProt P54394 1-931)
T1 sequence: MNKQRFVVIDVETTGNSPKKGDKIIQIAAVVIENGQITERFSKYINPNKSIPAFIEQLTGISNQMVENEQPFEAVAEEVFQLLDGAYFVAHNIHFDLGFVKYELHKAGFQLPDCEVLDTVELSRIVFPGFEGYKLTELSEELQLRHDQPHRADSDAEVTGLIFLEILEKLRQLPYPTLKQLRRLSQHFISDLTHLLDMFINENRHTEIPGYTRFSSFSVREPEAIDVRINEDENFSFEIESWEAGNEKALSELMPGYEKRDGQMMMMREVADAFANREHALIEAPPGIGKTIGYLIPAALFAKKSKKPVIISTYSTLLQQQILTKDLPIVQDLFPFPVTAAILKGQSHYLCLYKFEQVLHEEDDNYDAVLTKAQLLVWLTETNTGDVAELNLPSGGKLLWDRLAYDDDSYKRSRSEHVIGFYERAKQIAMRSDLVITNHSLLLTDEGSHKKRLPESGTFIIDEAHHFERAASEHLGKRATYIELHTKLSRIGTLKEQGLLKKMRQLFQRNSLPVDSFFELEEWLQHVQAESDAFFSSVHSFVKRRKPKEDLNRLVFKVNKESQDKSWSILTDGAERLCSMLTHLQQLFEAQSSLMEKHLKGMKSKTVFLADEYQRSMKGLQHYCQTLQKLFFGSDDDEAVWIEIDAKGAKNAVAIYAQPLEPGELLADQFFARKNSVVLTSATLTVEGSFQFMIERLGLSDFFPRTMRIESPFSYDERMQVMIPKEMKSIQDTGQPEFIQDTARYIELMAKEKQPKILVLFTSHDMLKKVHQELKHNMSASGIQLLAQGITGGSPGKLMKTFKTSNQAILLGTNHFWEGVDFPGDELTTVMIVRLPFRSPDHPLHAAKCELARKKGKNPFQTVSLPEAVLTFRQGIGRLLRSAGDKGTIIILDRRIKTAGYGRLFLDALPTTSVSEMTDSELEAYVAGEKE

T2: DinG D10A E12A (B. subtilis, UniProt P54394 1-931, D10A | E12A)
T2 construct: DinG, Bacillus subtilis, 931 aa, with codons 10 (Asp) and 12 (Glu) replaced by Ala; cloned into pET3a (pCB1259); also called exonuclease-deficient DinG; ExoI-deficient DinG variant; source: E. coli BL21(DE3) [pLysS] carrying pCB1259, purified by the same protocol as wt DinG
T2 sequence (looked up): T1 sequence with D10A, E12A

T3: DinG K290A (B. subtilis, UniProt P54394 1-931, K290A)
T3 construct: DinG, Bacillus subtilis, 931 aa, with codon 290 (Lys, Walker A box) replaced by Ala; cloned into pET3a (pCB1260); also called ATPase-deficient DinG; source: E. coli BL21(DE3) [pLysS] carrying pCB1260, purified by the same protocol as wt DinG
T3 sequence (looked up): T1 sequence with K290A

B1: RnhC (enzyme, B. subtilis, UniProt P94541 1-313, looked up)
chain: MSHSVIKVSLSAIDQMKMTYSGSLTASVPQGAVFQAKPPGCTITAYQSGKVLFQGKNAAAESARWGTAEPQEKKKTAKKPADPRYAPPADIAGMSVIGSDEVGTGDYFGPMTVVCAYVDKTMLPLMKELGVKDSKDLKDPQIIEIARNLIKTIPYSLLVLKNEKYNSMQEKGMSQGKMKALLHNQAITHLLRKLDGVKPEAILIDQFAEPGVYFNHLKGRDIVKERTYFSTKAEGIHLAVAAASIIARYSFLMEMDKLSRAAGMTLPKGAGPHVDEAAAKLILKKGASALRTFTKLHFANTQKAQRLADKKRS
notes: RnhC (RNase HIII), Bacillus subtilis; rnhC gene cloned into NdeI-linearised pET21b (pCB1242); also called RNase HIII; RnhC-His; source: E. coli BL21(DE3) [pLysS] carrying pCB1242 (rnhC-His), purified (Ni2+ His-Trap)
B2: RecA (natural protein, B. subtilis, UniProt P16971 1-348, looked up)
chain: MSDRQAALDMALKQIEKQFGKGSIMKLGEKTDTRISTVPSGSLALDTALGIGGYPRGRIIEVYGPESSGKTTVALHAIAEVQQQGGQAAFIDAEHALDPVYAQKLGVNIEELLLSQPDTGEQALEIAEALVRSGAVDIVVVDSVAALVPKAEIEGDMGDSHVGLQARLMSQALRKLSGAINKSKTIAIFINQIREKVGVMFGNPETTPGGRALKFYSSVRLEVRRAEQLKQGNDVMGNKTKIKVVKNKVAPPFRTAEVDIMYGEGISKEGEIIDLGTELDIVQKSGSWYSYEEERLGQGRENAKQFLKENKDIMLMIQEQIREHYGLDNNGVVQQQAEETQEELEFEE
notes: RecA recombinase, Bacillus subtilis; overproduced from plasmid pBT61 in B. subtilis BG214; also called recombinase RecA

The series “RecA” concerns the target B2. Put plainly: far-Western, overlay or dot blot; immuno-dot blot: proteins (75-300 ng) spotted on nitrocellulose, blocked with 5% skimmed milk in PBS, incubated 6 h at 4 °C with 200 ng/ml RecA in PBS, 0.5% skimmed milk powder, 0.1% Triton X-100; washed; retained RecA detected with polyclonal anti-RecA antibody. To be noted: both partners purified.
The target in series [1] is T1, DinG. The experiment in a line: EMSA; 3 mM Mg2+; substrate degraded during assay; Kapp; EMSA, buffer D (composition not in material; 3 mM MgCl2, or 2 mM EDTA instead), 0.5 nM DNA, 37 °C, 10 min (text: 5 min), 15% native PAGE in TBE 1X; pH and salt. Particulars: protein: recombinant; tags: none stated (pET3a, untagged); label: 5'-32P; single strand. Background: A gel shift assay detects complexes by their altered migration in electrophoresis.

The target of series [2] is T1, DinG. Put plainly: EMSA; 2 mM EDTA, no metal; Kapp; text names lssDNA38, Methods and Fig S4 legend give lssDNA45; EMSA, buffer D (composition not in material; 3 mM MgCl2, or 2 mM EDTA instead), 0.5 nM DNA, 37 °C, 10 min (text: 5 min), 15% native PAGE in TBE 1X; pH and salt. To be noted: protein: recombinant; tags: none stated (pET3a, untagged); label: 5'-32P; single strand.

Another series concerns the target T2, DinG D10A E12A. Put plainly: far-Western, overlay or dot blot; immuno-dot blot: proteins (75-300 ng) spotted on nitrocellulose, blocked with 5% skimmed milk in PBS, incubated 6 h at 4 °C with 200 ng/ml RecA in PBS, 0.5% skimmed milk powder, 0.1% Triton X-100; washed; retained RecA detected with polyclonal anti-RecA antibody. To be noted: both partners purified.

Another series deals with T3, DinG K290A. The description is as above. To be noted: both partners purified.

As to B1, the binding result with RecA is given as “binds”.
For the molecule GTACGTATTCAAGATACCTCGTACTCTGTACTGACTCGGATCCTA (ssDNA, biotin-T at position 44 (second from 3' end)) [3'-Biotin gamma32P-lssDNA45], the “apparent K (half saturation)” value with DinG [1] was less than 0.08 nM; with DinG [2], approximately 0.7 nM.
B2: the binding result with DinG D10A E12A and with DinG K290A was “binds” each time.

Source of the values: article PMC12525004, “Bacillus subtilis DinG 3′⟶5′ Exo(ribo)nuclease: A Helpmate to Mitigate Replication Stress” (International Journal of Molecular Sciences, 2025).
